These results are taken from the RNAGym collection of RNA variant scans (doi:10.1093/molbev/msab373).

First the molecules themselves.
B1: Azoarcus group I ribozyme (parent)
chain: GUGCCUUGCGCCGGGAAACCACGCAAGGGAUGGUGUCAAAUUCGGCGAAACCUAAGCGCCCGCCCGGGCGUAUGGCAACGCCGAGCCAAGCUUCGGCGCCUGCGCCGAUGAAGGUGUAGAGACUAGACGGCACCCACCUAAGGCAAACGCUAUGGUGAAGGCAUAGUCCAGGGAGUGGCGAAAGUCACACAAACCGG

The variants in the series derive from B1. In words: reverse-splicing fitness (ratio to wild type); higher = more active; in vitro selection; Mg2+ level not given. The method in brief:
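An in vitro group I ribozyme library with randomized positions was T7-transcribed and gel-purified. In triplicate, 10 pmol RNA in EPPS pH 7.5 was reacted with 50 pmoles of a 30-nt RNA substrate for 1 h at 37 °C across several added MgCl2 levels (1–48 mM), then stopped with EDTA. Products were reverse transcribed from a substrate-complementary primer, PCR-amplified and sequenced (HiSeq 4000). Fitness is a variant's read proportion after selection over that before, normalised to wild type.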
GUGCCUUGCGCCGGGAAACCACGCAAGGGAUGGUGUCAAAUUCGGCGAAACCUAAGCGCCCGCCCGGGCGUAUGGCAACGCUGAGCCAAGCUUCGGCGCCUGCGCCGAUGGAGGUGUAGCGACUAGACGGCACCCACCUAAGGCGAACGUUAUGGUGAAGGCAUAGUCAAGGGAGCGGCGAAAGUCACACAAACCGG [C82U A111G A120C A145G C150U C169A U176C]: the reverse-splicing fitness stood at 0.0152.
Then GUGCCUUGCGCCGGGAAACCACGCAAGGGAUGGUGUCAAAUUCGGCGAAACCUAAGCGCCCGCCCGGGCGUAUGGCAACGCAGAGCCAAGCUUCGGCGCCUGCGCCGAUGGAGGUGUAGCGACUAGACGGCACCCACCUAAGGCAAACGAUAUGGUGAAGGCAUAGUCCAGGGAGAGGCGAAAGUCACACAAACCGG [C82A A111G A120C C150A U176A], with 0.0133.
In the case of GUGCCUUGCGCCGGGAAACCACGCAAGGGAUGGUGUCAAAUUCGGCGAAACCUAAGCGCCCGCCCGGGCGUAUGGCAACGCAGAGCCAAGCUUCGGCGCCUGCGCCGAUGAAGGUGUAGGGACUAGACGGCACCCACCUAAGGCUAACGGUAUGGUGAAGGCAUAGUCCAGGGAGUGGCGAAAGUCACACAAACCGG [C82A A120G A145U C150G] it was 0.00781.
Consider GUGCCUUGCGCCGGGAAACCACGCAAGGGAUGGUGUCAAAUUCGGCGAAACCUAAGCGCCCGCCCGGGCGUAUGGCAACGCCGAGCCAAGCUUCGGCGCCUGCGCCGAUGUAGGUGUAGCGACUAGACGGCACCCACCUAAGGCAAACGCUAUGGUGAAGGCAUAGUCGAGGGAGGGGCGAAAGUCACACAAACCGG [A111U A120C C169G U176G], for which the reverse-splicing fitness amounted to 0.00402.
Then GUGCCUUGCGCCGGGAAACCACGCAAGGGAUGGUGUCAAAUUCGGCGAAACCUAAGCGCCCGCCCGGGCGUAUGGCAACGCAGAGCCAAGCUUCGGCGCCUGCGCCGAUGGAGGUGUAGGGACUAGACGGCACCCACCUAAGGCCAACGAUAUGGUGAAGGCAUAGUCAAGGGAGAGGCGAAAGUCACACAAACCGG [C82A A111G A120G A145C C150A C169A U176A], with 0.0118.
In the case of GUGCCUUGCGCCGGGAAACCACGCAAGGGAUGGUGUCAAAUUCGGCGAAACCUAAGCGCCCGCCCGGGCGUAUGGCAACGCAGAGCCAAGCUUCGGCGCCUGCGCCGAUGGAGGUGUAGAGACUAGACGGCACCCACCUAAGGCUAACGGUAUGGUGAAGGCAUAGUCAAGGGAGCGGCGAAAGUCACACAAACCGG [C82A A111G A145U C150G C169A U176C], the reverse-splicing fitness came to 0.0104.
Then GUGCCUUGCGCCGGGAAACCACGCAAGGGAUGGUGUCAAAUUCGGCGAAACCUAAGCGCCCGCCCGGGCGUAUGGCAACGCUGAGCCAAGCUUCGGCGCCUGCGCCGAUGCAGGUGUAGAGACUAGACGGCACCCACCUAAGGCCAACGUUAUGGUGAAGGCAUAGUCUAGGGAGAGGCGAAAGUCACACAAACCGG [C82U A111C A145C C150U C169U U176A], with 0.0154; and GUGCCUUGCGCCGGGAAACCACGCAAGGGAUGGUGUCAAAUUCGGCGAAACCUAAGCGCCCGCCCGGGCGUAUGGCAACGCGGAGCCAAGCUUCGGCGCCUGCGCCGAUGCAGGUGUAGGGACUAGACGGCACCCACCUAAGGCUAACGUUAUGGUGAAGGCAUAGUCUAGGGAGAGGCGAAAGUCACACAAACCGG [C82G A111C A120G A145U C150U C169U U176A], with 0.0143.
Take GUGCCUUGCGCCGGGAAACCACGCAAGGGAUGGUGUCAAAUUCGGCGAAACCUAAGCGCCCGCCCGGGCGUAUGGCAACGCCGAGCCAAGCUUCGGCGCCUGCGCCGAUGUAGGUGUAGCGACUAGACGGCACCCACCUAAGGCUAACGGUAUGGUGAAGGCAUAGUCCAGGGAGAGGCGAAAGUCACACAAACCGG [A111U A120C A145U C150G U176A]: the reverse-splicing fitness came out at 0.0175.
Turning to GUGCCUUGCGCCGGGAAACCACGCAAGGGAUGGUGUCAAAUUCGGCGAAACCUAAGCGCCCGCCCGGGCGUAUGGCAACGCGGAGCCAAGCUUCGGCGCCUGCGCCGAUGAAGGUGUAGAGACUAGACGGCACCCACCUAAGGCAAACGUUAUGGUGAAGGCAUAGUCGAGGGAGGGGCGAAAGUCACACAAACCGG [C82G C150U C169G U176G], the reverse-splicing fitness was 0.00501.
For GUGCCUUGCGCCGGGAAACCACGCAAGGGAUGGUGUCAAAUUCGGCGAAACCUAAGCGCCCGCCCGGGCGUAUGGCAACGCGGAGCCAAGCUUCGGCGCCUGCGCCGAUGGAGGUGUAGAGACUAGACGGCACCCACCUAAGGCCAACGUUAUGGUGAAGGCAUAGUCCAGGGAGUGGCGAAAGUCACACAAACCGG [C82G A111G A145C C150U], the reverse-splicing fitness worked out at 0.0841.
Consider GUGCCUUGCGCCGGGAAACCACGCAAGGGAUGGUGUCAAAUUCGGCGAAACCUAAGCGCCCGCCCGGGCGUAUGGCAACGCGGAGCCAAGCUUCGGCGCCUGCGCCGAUGCAGGUGUAGUGACUAGACGGCACCCACCUAAGGCCAACGGUAUGGUGAAGGCAUAGUCGAGGGAGGGGCGAAAGUCACACAAACCGG [C82G A111C A120U A145C C150G C169G U176G], for which the reverse-splicing fitness was found to be 0.00233.
In the case of GUGCCUUGCGCCGGGAAACCACGCAAGGGAUGGUGUCAAAUUCGGCGAAACCUAAGCGCCCGCCCGGGCGUAUGGCAACGCUGAGCCAAGCUUCGGCGCCUGCGCCGAUGCAGGUGUAGUGACUAGACGGCACCCACCUAAGGCCAACGCUAUGGUGAAGGCAUAGUCCAGGGAGAGGCGAAAGUCACACAAACCGG [C82U A111C A120U A145C U176A] it was 0.00655.
Then GUGCCUUGCGCCGGGAAACCACGCAAGGGAUGGUGUCAAAUUCGGCGAAACCUAAGCGCCCGCCCGGGCGUAUGGCAACGCAGAGCCAAGCUUCGGCGCCUGCGCCGAUGGAGGUGUAGAGACUAGACGGCACCCACCUAAGGCGAACGCUAUGGUGAAGGCAUAGUCGAGGGAGCGGCGAAAGUCACACAAACCGG [C82A A111G A145G C169G U176C], with 0.0288; and GUGCCUUGCGCCGGGAAACCACGCAAGGGAUGGUGUCAAAUUCGGCGAAACCUAAGCGCCCGCCCGGGCGUAUGGCAACGCAGAGCCAAGCUUCGGCGCCUGCGCCGAUGCAGGUGUAGCGACUAGACGGCACCCACCUAAGGCAAACGAUAUGGUGAAGGCAUAGUCCAGGGAGCGGCGAAAGUCACACAAACCGG [C82A A111C A120C C150A U176C], with 0.0178.
